The source of these data is patent publication US20160136295A1, “BIOMARKERS FOR TREATMENT WITH ANTI-TUBULIN CHEMOTHERAPEUTIC COMPOUNDS” (GENENTECH, INC., priority 2012, published 2016).

What all share (assay type): biochemical, human
One experiment concerns Mcl-1 S121. Briefly: In vitro kinase reactions: percent phosphorylation of full-length recombinant Mcl-1 at S121. The settings on record: for Percent phosphorylation S121, AVE: average of INJ1 and INJ2; for Percent phosphorylation S121, INJ1: sample injection 1; for Percent phosphorylation S121, INJ2: sample injection 2. The protocol:
(§1) To determine the suitability of residues in Mcl-1 as kinase substrates, 10 μM of Mcl-1 was incubated with selected kinase at enzyme concentrations between 25 and 100 nM. For these reactions the Mcl-1 was dialyzed into 20 mM Phosphate, 50 mM Tris pH 7.5 150 mM NaCl, 5 mM DTT and 0.5% CHAPS. The protein solution was further supplemented with MgCl2 to 10 mM and ATP to 1 mM prior to addition of kinase. Purified recombinant kinases were purchased from Invitrogen Co. (Carlsbad, Calif.).
(§2) 10 μl of each of the Mcl-1 kinase reactions (100 pmol) were loaded onto a 4-12% Bis-Tris gel for separation by SDS-PAGE after reduction. Mcl-1 bands were excised from the gel, dehydrated (50% acetonitrile in 50 mM ammonium bicarbonate then 100% acetonitrile washes), and incubated with 0.2 μg trypsin overnight at 37° C.
(§3) Samples were injected in duplicate via autosampler onto a nanoAcquity® UPLC (Waters, Milford, Mass.) and analyzed on-line via nanospray ionization into an LTQ-Orbitrap® mass spectrometer at a concentration of 300 fmol synthetic peptide mix per injection. Areas were integrated for the isotopic and kinase phosphorylated peptides, and compared to their non-phosphorylated peptide counterparts to obtain percent phosphorylation values.

For a further experiment, the system named is Mcl-1 T163. Briefly: In vitro kinase reactions: percent phosphorylation of full-length recombinant Mcl-1 at T163. The settings on record: single kinase reactions. The protocol: as §1, §2, §3
Another experiment has as its system Mcl-1 S159/T163. In words: In vitro kinase reactions: percent phosphorylation of full-length recombinant Mcl-1 at S159+T163. The following applies: for Percent phosphorylation S159/T163, AVE: average; for Percent phosphorylation S159/T163, INJ1: sample injection 1; for Percent phosphorylation S159/T163, INJ2: sample injection 2. The protocol: as §1, §2, §3
Another experiment deals with Mcl-1 T92. In words: In vitro kinase reactions: percent phosphorylation of full-length recombinant Mcl-1 at T92. The settings on record: single kinase reactions, peak areas of 0 and 1P, triple charged state. The protocol:
as §1, §2, §3

The mark [1] stands for this setting: % phos on S159+T163, CDK1 + kinase panel reactions.
Setting [2] is: % phos on S159+T163, single kinase reactions.

B1: MAPK8: purified recombinant kinase purchased from Invitrogen (protein, UniProt P45983 1-427, looked up)
Mitogen-activated protein …: MSRSKRDNNFYSVEIGDSTFTVLKRYQNLKPIGSGAQGIVCAAYDAILERNVAIKKLSRPFQNQTHAKRAYRELVLMKCVNHKNIIGLLNVFTPQKSLEEFQDVYIVMELMDANLCQVIQMELDHERMSYLLYQMLCGIKHLHSAGIIHRDLKPSNIVVKSDCTLKILDFGLARTAGTSFMMTPYVVTRYYRAPEVILGMGYKENVDLWSVGCIMGEMVCHKILFPGRDYIDQWNKVIEQLGTPCPEFMKKLQPTVRTYVENRPKYAGYSFEKLFPDVLFPADSEHNKLKASQARDLLSKMLVIDASKRISVDEALQHPYINVWYDPSEAEAPPPKIPDKQLDEREHTIEEWKELIYKEVMDLEERTKNGVIRGQPSPLGAAVINGSQHPSSSSSVNDVSSMSTDPTLASDTDSSLEAAAGPLGCCR
On to B1, for which, in the experiment on Mcl-1 S121 (CDK1 + kinase panel reactions), the “Percent phosphorylation S121, AVE” value came to 70.06%; the “Percent phosphorylation S121, INJ1” value is on record as 68.97%; the “Percent phosphorylation S121, INJ2” value worked out at 71.14%. Besides, in the experiment with Mcl-1 S121 (single kinase reactions), the “Percent phosphorylation S121, AVE” value was determined as 21.56%; the “Percent phosphorylation S121, INJ1” value was 17.66%; the “Percent phosphorylation S121, INJ2” value is on record as 25.46%. Moreover, in the experiment on Mcl-1 T163 (average of INJ1 and INJ2), the “Percent phosphorylation T163, AVE” value is listed as 56.77%. Besides, the “Percent phosphorylation T163, INJ1” value in the experiment with Mcl-1 T163 (sample injection 1) stood at 60.42%. Further, the “Percent phosphorylation T163, INJ2” value with Mcl-1 T163 (sample injection 2) is listed as 53.11%. Moreover, in the experiment on Mcl-1 S159/T163 (setting [1]), the “Percent phosphorylation S159/T163, AVE” value amounted to 9.45%; the “Percent phosphorylation S159/T163, INJ1” value is given as 10.13%; the “Percent phosphorylation S159/T163, INJ2” value came to 8.76%. In addition, in the experiment on Mcl-1 S159/T163 (setting [2]), the “Percent phosphorylation S159/T163, AVE” value is given as 16.98%; the “Percent phosphorylation S159/T163, INJ1” value turned out to be 15.54%; the “Percent phosphorylation S159/T163, INJ2” value is 18.42%. In the experiment on Mcl-1 T92 (average), the “Percent phosphorylation T92, AVE” value amounted to 6.04%. Moreover, in the experiment with Mcl-1 T92 (sample injection 1), the “Percent phosphorylation T92, INJ1” value stood at 5.99%. Besides, the “Percent phosphorylation T92, INJ2” value in the experiment with Mcl-1 T92 (sample injection 2) is recorded as 6.08%.
